Patent US20050233350A1

Assays:
[1] = target: T1, recombinant HLA-A2.1 protein with β2-microglobulin (human); test: cell free HLA-A2.1 peptide binding (competition) assay, HA-1^R against HA-1^H; conditions: remark: other sources report otherwise
[2] = target: T1, recombinant HLA-A2.1 protein with …; test: cell free competition assay: inhibition of binding of fluorescent [..] to recombinant HLA-A2.1 and β2-microglobulin, gel filtration, 4 experiments; conditions: remark: other sources report otherwise

fold lower binding affinity against the HA-1^H peptide [1] [fold]	IC50 [2] [nM]	Binder
10	365	VLRDDLLEA [HA-1^R peptide … (allelic counterpart of HA-1, synthetic)]
	30	VLHDDLLEA [HA-1^H peptide … (minor histocompatibility antigen HA-1 nonapeptide, synthetic)]
